Data from article PMC8837534, “CD147 supports paclitaxel resistance via interacting with RanBP1” (Oncogene, 2022).

Target: T1, RanBP1 protein (full-length, recombinant) (UniProt P43487 1-201)
T1 construct: pMAL-c5x vector; that this removed MBP is inferred; source: E. coli BL21 (DE3), purified (MBPTrap HP, thrombin digestion, Superdex 75); not shown: MBP, N-terminal, cleaved
Test: SPR; ProteOn XPR36, One-shot Kinetics; concentration series of CD147^ICD injected over the immobilized ligand in TBS-T, 50 μL/min for 3 min, dissociation 12 min; constants by ProteOn Manager Software
Conditions: both partners purified

T1 sequence (P43487 whole entry): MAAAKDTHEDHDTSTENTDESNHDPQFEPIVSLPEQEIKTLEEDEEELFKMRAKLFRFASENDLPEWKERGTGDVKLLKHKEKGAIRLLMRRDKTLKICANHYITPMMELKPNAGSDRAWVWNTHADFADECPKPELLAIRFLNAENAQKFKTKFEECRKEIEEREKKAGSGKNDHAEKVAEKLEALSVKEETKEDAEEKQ

B1: His6-tagged CD147^ICD (intracellular domain of CD147, residues 231-269) (domain or fragment, UniProt P35613-2 231-269, looked up)
chain: KRRKPEDVLDDDDAGSAPLKSSGQHQNDKGKNVRQRNSS
notes: CD147 (basigin), intracellular domain, residues 231-269; One preparation is described (pET21a, 'SUMO-His tag at the C-terminus', SUMO removed by Ulp1); The pull-down names the bait as His6-tagged; source: E. coli BL21 (DE3), purified (HisTrap HP, Ulp1 digestion, Superdex 75); not shown: SUMO, C-terminal, cleaved; His6, C-terminal, kept
- Kd: 2.25 µM
